From patent US11667688B2, “Glucagon derivative and a composition comprising a long acting conjugate of the same” (HANMI PHARM. CO., LTD., priority 2015, dated 2023)
Bridge positions count the residues as written; N and C are the ends. Square brackets hold non-standard residues; d marks the D form. Ends that are not written are not given here. Aib = CC(C)(N)C(=O)O

molecular target: T1, human glucagon receptors (Homo sapiens, UniProt P47871); test: cAMP activity of glucagon derivatives in CHO cell line transfected with human glucagon receptor (LANCE cAMP kit); assay type: cell-based; settings: cAMP EC50 compared with that of native glucagon; CHO cells with human glucagon receptor
T1 construct: a region corresponding to Open Reading Frame (ORF) in the cDNA; expressed in transfected cells
T1 sequence (P47871 26-477): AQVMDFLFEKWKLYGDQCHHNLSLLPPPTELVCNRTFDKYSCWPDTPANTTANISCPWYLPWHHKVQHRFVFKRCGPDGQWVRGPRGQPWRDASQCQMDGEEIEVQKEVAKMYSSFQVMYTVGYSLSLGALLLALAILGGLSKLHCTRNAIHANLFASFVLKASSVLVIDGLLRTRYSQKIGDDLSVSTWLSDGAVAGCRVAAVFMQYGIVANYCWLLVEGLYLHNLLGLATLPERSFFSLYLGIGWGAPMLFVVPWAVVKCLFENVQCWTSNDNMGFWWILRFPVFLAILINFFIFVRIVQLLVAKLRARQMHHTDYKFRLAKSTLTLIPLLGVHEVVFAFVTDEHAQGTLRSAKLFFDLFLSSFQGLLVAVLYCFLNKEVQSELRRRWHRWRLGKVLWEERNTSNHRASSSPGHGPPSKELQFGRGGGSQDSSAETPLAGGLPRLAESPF
Protocol: PCR was performed using a region corresponding to Open Reading Frame (ORF) in the cDNA (OriGene Technologies, Inc., USA) of human glucagon receptor gene as a template along with the following forward and reverse primers (SEQ ID NOS: 47 and 48, respectively), which include each of the EcoRI and XhoI restriction sites.
The PCR product was cloned into a known animal cell expression vector, x0GC/dhfr, to prepare a recombinant vector x0GC/GCGR.
CHO DG44 cell line cultured in DMEM/F12 (10% FBS) medium was transfected with the recombinant vector x0GC/GCGR using LIPOFECTAMINE®, and cultured in a selection medium containing G418 (1 mg/mL) and methotraxate (10 nM).
Specifically, the transfected cell line was subcultured 3 to 4 times a week, aliquoted into a 384-well plate in an amount of 6×10^3 cell lines/well, and cultured for 24 hours. Native glucagon and glucagon derivatives were suspended in Hank's balanced salt solution (HBSS) buffer containing 0.5 mM of 3-isobutyl-1-methylxanthine (IBMX), 0.1% bovine serum albumin (BSA), and 5 mM 4-(2-hydroxyethyl)-1-piperazineethanesulfonic acid (HEPES) with the culture cells, at concentrations of 200 nM and 1600 nM, respectively, continuously subjected into a 4-fold dilution 10 times, applied to a cAMP assay kit (LANCE cAMP 384 kit, PerkinElmer), and added to the cultured cells, and their fluorescence value was measured.

In vitro Activity (Relative Activity of SEQ ID NO: 1, %) [%]	Molecule
<0.1	HSQGTFTSDYSKYLDSCDAQDFVQWLMNT (glucagon derivative) [SEQ ID NO: 4]
<0.1	WXQGTFVSDYSKYLDECRAKDFVQWLMNT (W[Aib]QGTFVSDYSKYLDECRAKDFVQWLMNT; bridge 16-20) [SEQ ID NO: 28, glucagon derivative, X = Aib]
4.6	YXQGTFTSDYSKYLDEKCAKEFVQWLMNT [SEQ ID NO: 11] (Y[Aib]QGTFTSDYSKYLDEKCAKEFVQWLMNT; not fully specified) [glucagon derivative, X = Aib]
61.3	YXQGTFTSDYSKCLDERRAKDFVQWLMNT (Y[Aib]QGTFTSDYSKCLDERRAKDFVQWLMNT; bridge 16-20) [SEQ ID NO: 29, glucagon derivative, X = Aib]
58.0	YXQGTFTSDYSKCLDEKRAKEFVQWLMNT (Y[Aib]QGTFTSDYSKCLDEKRAKEFVQWLMNT; bridge 16-20) [SEQ ID NO: 24, glucagon derivative, X = Aib]
37.9	YXQGTFCSDYSKYLDSRRAQDFVQWLMNT (Y[Aib]QGTFCSDYSKYLDSRRAQDFVQWLMNT) [SEQ ID NO: 42, glucagon derivative, X = Aib]
6.3	YXQGTFTSDYSKYLDCKRAKEFVQWLMNT (Y[Aib]QGTFTSDYSKYLDCKRAKEFVQWLMNT; bridge 17-21) [SEQ ID NO: 31, glucagon derivative, X = Aib]
<0.1	HSQGTFTSDYSKYLDSCEADDFVQWLMNT (glucagon derivative) [SEQ ID NO: 6]
6.1	HSQGTFTSDYSKYLDCERAQDFVQWLMNT (glucagon derivative) [SEQ ID NO: 3]
4.2	YXQGTFTSDYSKYLDCRRAQVFVQWLMRT (Y[Aib]QGTFTSDYSKYLDCRRAQVFVQWLMRT) [SEQ ID NO: 16, glucagon derivative, X = Aib]
76.8	YXQGTFTSDYSKYCDEKRAKEFVQWLMNT (Y[Aib]QGTFTSDYSKYCDEKRAKEFVQWLMNT; bridge 16-20) [SEQ ID NO: 23, glucagon derivative, X = Aib]

tested on: not given; test: not given; settings: when taken for one year; cited from earlier work

Molecule	weight loss
CCCCCCCCCCC[C@@H](C[C@@H]1OC(=O)[C@H]1CCCCCC)OC(=O)[C@H](CC(C)C)NC=O [ORLISTAT]	about 4 kg
